{"source": "the supplement of paper PMC10567573", "parents": {"B1": {"name": "NET1 (parent)", "chain": "RVRPLARVTSLANLISPVRNGAVR"}}}
{"variants_of": "B1", "experiment": "protein stability index of a GFP-peptide fusion (GPS, HEK-293T) (PSI 1-6); higher = more stable", "conditions": "c terminus: a fixed tail appended"}
{"variant": "RVRPLAFVTSLANLISPVRNGAVR", "protein stability index": 1.85}
{"variant": "RVRPLAHVTSLANLISPVRNGAVR", "protein stability index": 2.71}
{"variant": "RVRPLATVTSLANLISPVRNGAVR", "protein stability index": 3.39}
{"variant": "RVRPLAVVTSLANLISPVRNGAVR", "protein stability index": 2.84}
{"variant": "RVRPLAMVTSLANLISPVRNGAVR", "protein stability index": 2.64}
{"variant": "RVRPLADVTSLANLISPVRNGAVR", "protein stability index": 2.84}
{"variant": "RVRPLAYVTSLANLISPVRNGAVR", "protein stability index": 2.77}
{"variant": "RVRPLAIVTSLANLISPVRNGAVR", "protein stability index": 2.43}
{"variant": "RVRPLAAVTSLANLISPVRNGAVR", "protein stability index": 3.88}
{"variant": "RVRPLAPVTSLANLISPVRNGAVR", "protein stability index": 3.81}
{"variant": "RVRPLALVTSLANLISPVRNGAVR", "protein stability index": 2.83}
{"variant": "RVRPLAGVTSLANLISPVRNGAVR", "protein stability index": 3.93}
{"variant": "RVRPLANVTSLANLISPVRNGAVR", "protein stability index": 3.31}
{"variant": "RVRPLAQVTSLANLISPVRNGAVR", "protein stability index": 3.37}
{"variant": "RVRPLACVTSLANLISPVRNGAVR", "protein stability index": 2.39}
{"variant": "RVRPLAEVTSLANLISPVRNGAVR", "protein stability index": 2.5}
{"variant": "RVRPLASVTSLANLISPVRNGAVR", "protein stability index": 2.78}
{"variant": "RVRPLAWVTSLANLISPVRNGAVR", "protein stability index": 2.79}
{"variant": "RVRPLAKVTSLANLISPVRNGAVR", "protein stability index": 2.26}
{"variant": "RVRPMARVTSLANLISPVRNGAVR", "protein stability index": 2.55}
{"variant": "RVRPFARVTSLANLISPVRNGAVR", "protein stability index": 2.71}
{"variant": "RVRPSARVTSLANLISPVRNGAVR", "protein stability index": 3.6}
{"variant": "RVRPKARVTSLANLISPVRNGAVR", "protein stability index": 2.85}
{"variant": "RVRPRARVTSLANLISPVRNGAVR", "protein stability index": 3.2}
{"variant": "RVRPHARVTSLANLISPVRNGAVR", "protein stability index": 3.14}
{"variant": "RVRPAARVTSLANLISPVRNGAVR", "protein stability index": 3.36}
{"variant": "RVRPIARVTSLANLISPVRNGAVR", "protein stability index": 3.04}
{"variant": "RVRPNARVTSLANLISPVRNGAVR", "protein stability index": 2.56}
{"variant": "RVRPWARVTSLANLISPVRNGAVR", "protein stability index": 2.03}
{"variant": "RVRPCARVTSLANLISPVRNGAVR", "protein stability index": 3.04}
{"variant": "RVRPQARVTSLANLISPVRNGAVR", "protein stability index": 3.54}
{"variant": "RVRPGARVTSLANLISPVRNGAVR", "protein stability index": 2.5}
{"variant": "RVRPVARVTSLANLISPVRNGAVR", "protein stability index": 3.59}
{"variant": "RVRPYARVTSLANLISPVRNGAVR", "protein stability index": 2.59}
{"variant": "RVRPDARVTSLANLISPVRNGAVR", "protein stability index": 3.04}
{"variant": "RVRPPARVTSLANLISPVRNGAVR", "protein stability index": 3.3}
{"variant": "RVRPEARVTSLANLISPVRNGAVR", "protein stability index": 3.61}
{"variant": "RVRPTARVTSLANLISPVRNGAVR", "protein stability index": 2.56}
{"variant": "RVVPLARVTSLANLISPVRNGAVR", "protein stability index": 2.6}
{"variant": "RVSPLARVTSLANLISPVRNGAVR", "protein stability index": 3.03}
{"variant": "RVTPLARVTSLANLISPVRNGAVR", "protein stability index": 2.99}
{"variant": "RVQPLARVTSLANLISPVRNGAVR", "protein stability index": 3.33}
{"variant": "RVYPLARVTSLANLISPVRNGAVR", "protein stability index": 2.55}
{"variant": "RVWPLARVTSLANLISPVRNGAVR", "protein stability index": 1.91}
{"variant": "RVRNLARVTSLANLISPVRNGAVR", "protein stability index": 2.9}
{"variant": "RVRILARVTSLANLISPVRNGAVR", "protein stability index": 1.4}
{"variant": "RVRMLARVTSLANLISPVRNGAVR", "protein stability index": 1.43}
{"variant": "RVRFLARVTSLANLISPVRNGAVR", "protein stability index": 2.4}
{"variant": "RVRQLARVTSLANLISPVRNGAVR", "protein stability index": 2.51}
{"variant": "RVRCLARVTSLANLISPVRNGAVR", "protein stability index": 1.18}
{"variant": "RVRKLARVTSLANLISPVRNGAVR", "protein stability index": 2.87}
{"variant": "RVRTLARVTSLANLISPVRNGAVR", "protein stability index": 2.31}
{"variant": "RVRHLARVTSLANLISPVRNGAVR", "protein stability index": 2.86}
{"variant": "RVRRLARVTSLANLISPVRNGAVR", "protein stability index": 1.97}
{"variant": "RVRDLARVTSLANLISPVRNGAVR", "protein stability index": 3.06}
{"variant": "RVRELARVTSLANLISPVRNGAVR", "protein stability index": 2}
{"variant": "RVRWLARVTSLANLISPVRNGAVR", "protein stability index": 2.71}
{"variant": "RVRSLARVTSLANLISPVRNGAVR", "protein stability index": 2.85}
{"variant": "RVRVLARVTSLANLISPVRNGAVR", "protein stability index": 2.02}
{"variant": "RVRALARVTSLANLISPVRNGAVR", "protein stability index": 2.06}
{"variant": "RVRGLARVTSLANLISPVRNGAVR", "protein stability index": 2.38}
{"variant": "RVRPLNRVTSLANLISPVRNGAVR", "protein stability index": 2.93}
{"variant": "RVRPLPRVTSLANLISPVRNGAVR", "protein stability index": 3.04}
{"variant": "RVRPLYRVTSLANLISPVRNGAVR", "protein stability index": 2.02}
{"variant": "RVRPLQRVTSLANLISPVRNGAVR", "protein stability index": 3.17}
{"variant": "RVRPLKRVTSLANLISPVRNGAVR", "protein stability index": 2.74}
{"variant": "RVRPLERVTSLANLISPVRNGAVR", "protein stability index": 3.06}
{"variant": "RVRPLDRVTSLANLISPVRNGAVR", "protein stability index": 2.95}
{"variant": "RVRPLSRVTSLANLISPVRNGAVR", "protein stability index": 2.53}
{"variant": "RVRPLRRVTSLANLISPVRNGAVR", "protein stability index": 3.33}
{"variant": "RVRPLFRVTSLANLISPVRNGAVR", "protein stability index": 2.71}
{"variant": "RVRPLMRVTSLANLISPVRNGAVR", "protein stability index": 3.18}
{"variant": "RVRPLWRVTSLANLISPVRNGAVR", "protein stability index": 2.35}
{"variant": "RVRPLLRVTSLANLISPVRNGAVR", "protein stability index": 2.72}
{"variant": "RVRPLTRVTSLANLISPVRNGAVR", "protein stability index": 2.9}
{"variant": "RVRPLVRVTSLANLISPVRNGAVR", "protein stability index": 3.36}
{"variant": "RVRPLIRVTSLANLISPVRNGAVR", "protein stability index": 2.76}
{"variant": "RVRPLCRVTSLANLISPVRNGAVR", "protein stability index": 2.98}
{"variant": "RVRPLHRVTSLANLISPVRNGAVR", "protein stability index": 2.69}
{"variant": "RVRPLGRVTSLANLISPVRNGAVR", "protein stability index": 3.98}
{"variant": "RVRPLARITSLANLISPVRNGAVR", "protein stability index": 2.38}
{"variant": "RVRPLARKTSLANLISPVRNGAVR", "protein stability index": 2.6}
{"variant": "RVRPLARNTSLANLISPVRNGAVR", "protein stability index": 2.87}
{"variant": "RVRPLARPTSLANLISPVRNGAVR", "protein stability index": 3.1}
{"variant": "RVRPLARQTSLANLISPVRNGAVR", "protein stability index": 2.73}
{"variant": "RVRPLARGTSLANLISPVRNGAVR", "protein stability index": 2.32}
{"variant": "RVRPLARCTSLANLISPVRNGAVR", "protein stability index": 2.93}
{"variant": "RVRPLARHTSLANLISPVRNGAVR", "protein stability index": 2.49}
{"variant": "RVRPLARDTSLANLISPVRNGAVR", "protein stability index": 3.63}
{"variant": "RVRPLARLTSLANLISPVRNGAVR", "protein stability index": 2.65}
{"variant": "RVRPLARFTSLANLISPVRNGAVR", "protein stability index": 2.28}
{"variant": "RVRPLARMTSLANLISPVRNGAVR", "protein stability index": 2.79}
{"variant": "RVRPLARETSLANLISPVRNGAVR", "protein stability index": 3.54}
{"variant": "RVRPLARATSLANLISPVRNGAVR", "protein stability index": 4.44}
